In patent US7790398B2, “Method for determining effective parathormone activity in a sample” (priority 2001, dated 2010):

Tests used:
[1] = test system: captor antibody against the N-terminal PTH fragment (anti-hPTH(1-34)); experiment: Spiking experiments with hPTH(1-37) fragments, Nichols IRMA intact PTH test; format: binding, goat; details: 1000 pM hPTH(1-37) added
Procedure: The Nichols Intact PTH Assay (Nichols Institute, San Juan Capistrano, Calif., U.S.A) is a double binding immunoradiometry assay (IRMA) with two polyclonal goat antibodies. […] The second detection antibody, marked with ^125Iodine, recognizes an epitope in the N-terminal section of the PTH (anti-hPTH(1-34)). The sample was incubated at the same time with the antibody coated beads and the ^125Iodine marked detection antibody overnight (12±2 h) at room temperature. After the incubation, the beads were washed and the radioactivity adhering to the solid phase measured in a gamma counter (LKB1277 Gamma Master from Perkin-Elmer). The dose measurement curve (MultiCalc Software) between bound radioactivity and concentration in the sample was determined strictly in accordance with the manufacturer's instructions via a standard measured at the same time. […]
The standard sample and the plasma pools where in each case treated with three different concentrations of hPTH(1-37) fragments in five different oxidation and state forms and then the recovered PTH contents determined. […]
There were produced from each fragment solution three initial concentrations (1000 nM, 100 nM and 10 nM). A further dilution of the fragment solutions 1:100 in the standard and in the pool plasma yielded final concentrations of […] in the sample to be analyzed. […]

[2] = test system: captor antibody used in the Roche Elecsys 2010 PTH test; experiment: Oxidation and reduction of plasma samples, measured with Roche Elecsys 2010 PTH test
Procedure: The Roche Elecsys™ PTH assay is an electrochemiluminescence immunoassay (ECLIA) on the fully automatic immunoanalyzer Elecsys ^R2010. The epitope recognized by the biotinylated captor antibody contains the PTH amino acids 26 to 32 and the monoclonal ruthenium detection antibody recognizes, in accordance with the information from the manufacturer, an epitope in the region of the PTH amino acids 55 to 64. Sample and antibodies were incubated together for 9 minutes at 37° C., Streptavidin coated paramagnetic beads introduced to the incubation mixture, and finally incubated for further 9 minutes. After magnetic separation of the bonded conjugates from the free conjugates on an electrode surface the luminescence was determined and the end PTH concentration determined via a recalibrated master curve. The interassay variance in the lower and upper normal region was less than 7% CV and in the high concentration region 5% CV.
(§1) 30 plasma samples of dialysis patients and ESRD patients (ESRD=end stage renal disease) were selected at random and oxidized with hydrogen peroxide (30%; end concentration: 1.5 Mol/L) or reduced with sodium boron hydride (NaBH4, aqueous solution of 100 nMol/L). All samples, treated and untreated, where measured at the same time with the Roche Elecsys™2010 and the Nichols IRMA test.
(§2) The oxidation was effected with 30% hydrogen peroxide solution. The hydrogen peroxide concentration in the incubation preparation was at 17% of the 30% solution. All samples were incubated for 45 minutes at 37° C., then also cooled down to −70° C., lyophilized and stored at −20° C. until the quantitative PTH determination.
Of 20 samples an aliquot of each in the ratio 1:1 (v/v) was treated and reduced with a 100 nMol NaBH4 solution. Further, of 10 oxidized samples in each case an aliquot was reverse reduced by the addition of a 100 nMol NaBH4 solution in the ratio 1:1. The samples were incubated for 45 minutes at room temperature and the reaction stopped on dry ice. After the lyophilization the samples were deep frozen at −20° C. until determination. The diagrams of FIGS. 5 to 11 show the results.

[3] = test system: polyclonal antibodies employed in the Nichols test; experiment: Oxidation and reduction of plasma samples, measured with Nichols IRMA; set-up: species or system goat; details: H2O2 oxidation
Procedure: The Nichols Intact PTH Assay (Nichols Institute, San Juan Capistrano, Calif., U.S.A) is a double binding immunoradiometry assay (IRMA) with two polyclonal goat antibodies. The captor antibody, immobilized in plastic beads, binds only in the middle or C-terminal section of the hPTH (anti-hPTH(39-89)). The second detection antibody, marked with ^125Iodine, recognizes an epitope in the N-terminal section of the PTH (anti-hPTH(1-34)). The sample was incubated at the same time with the antibody coated beads and the ^125Iodine marked detection antibody overnight (12±2 h) at room temperature. After the incubation, the beads were washed and the radioactivity adhering to the solid phase measured in a gamma counter (LKB1277 Gamma Master from Perkin-Elmer). The dose measurement curve (MultiCalc Software) between bound radioactivity and concentration in the sample was determined strictly in accordance with the manufacturer's instructions via a standard measured at the same time. The interassay variance in the normal and increased region was less than 10% CV.
as §1, §2
Of 20 samples an aliquot of each in the ratio 1:1 (v/v) was treated and reduced with a 100 nMol NaBH4 solution. Further, of 10 oxidized samples in each case an aliquot was reverse reduced by the addition of a 100 nMol NaBH4 solution in the ratio 1:1. […]

[4] = H2O2 oxidation, individual samples

Molecule: hPTH(1-37): native hPTH(1-37) fragment of human parathyroid hormone, from IPF or Immundiagnostik AG (SVSEIQLMHNLGKHLNSMERVEWLRKKLQDVHNFVAL; Parathyroid hormone; UniProt P01270 32-68, looked up, fragment)
- signal reduction to % of the native measured sample [1]: 50%

B1: PTH: parathyroid hormone, single polypeptide chain of 84 amino acids, endogenous in plasma samples of dialysis patients (protein, UniProt P01270 32-115, looked up)
Parathyroid hormone: SVSEIQLMHNLGKHLNSMERVEWLRKKLQDVHNFVALGAPLAPRDAGSQRPRKKEDNVLVESHEKSLGEADKADVNVLTKAKSQ
modifications: Parathyroid hormone
notes: parathyroid hormone, single polypeptide chain of 84 amino acids, endogenous in plasma samples of dialysis patients
- measurement value after oxidation, average, of the initial value ([2]; H2O2 oxidation, 45 minutes at 37° C., plasma of dialysis and ESRD patients): 29%
- highest remaining measurement signal after oxidation, % of initial value [2, 4]: 53%
- lowest remaining measurement signal after oxidation, % of initial value [2, 4]: 10%
- measurement value after oxidation and reverse reduction, of the initial value ([2]; H2O2 then NaBH4): ca. 50%
- concentration after oxidation, average, of the initial value [3]: 76%
- highest remaining concentration after oxidation, % of initial value (smallest reduction) ([3]; individual samples): 98%
- lowest remaining concentration after oxidation, % of initial value (largest reduction) ([3]; individual samples): 33%
